Experimental data from publication PMC5551697 (The Journal of Cell Biology, 2017).
Each block holds one binder with its values, some of them ahead of it.

What was measured:
[1] = target: T1, reconstituted Tda2–Aim21 complex (GST-Aim21–His-Tda2 complex) (S. cerevisiae, UniProt P40563 1-679; P40045 1-126); test: pull-down
T1 sequence (looked up) 1: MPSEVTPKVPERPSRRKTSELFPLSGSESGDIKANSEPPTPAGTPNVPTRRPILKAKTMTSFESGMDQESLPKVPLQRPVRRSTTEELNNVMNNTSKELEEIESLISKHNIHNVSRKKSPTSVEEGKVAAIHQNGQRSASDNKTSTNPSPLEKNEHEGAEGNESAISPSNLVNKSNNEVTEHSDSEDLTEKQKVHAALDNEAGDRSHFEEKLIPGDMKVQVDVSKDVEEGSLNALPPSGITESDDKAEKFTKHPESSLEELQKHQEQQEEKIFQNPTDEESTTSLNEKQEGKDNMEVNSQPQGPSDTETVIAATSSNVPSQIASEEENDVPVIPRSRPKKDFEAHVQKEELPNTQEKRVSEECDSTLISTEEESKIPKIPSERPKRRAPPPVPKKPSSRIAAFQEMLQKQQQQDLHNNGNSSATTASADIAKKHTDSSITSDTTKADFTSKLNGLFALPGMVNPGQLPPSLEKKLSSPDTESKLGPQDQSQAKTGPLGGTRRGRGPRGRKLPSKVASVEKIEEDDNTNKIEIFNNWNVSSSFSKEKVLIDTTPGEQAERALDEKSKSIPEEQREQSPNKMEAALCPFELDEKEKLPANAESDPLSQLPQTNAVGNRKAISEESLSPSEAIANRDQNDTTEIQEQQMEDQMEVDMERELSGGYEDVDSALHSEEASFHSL
T1 sequence (looked up) 2: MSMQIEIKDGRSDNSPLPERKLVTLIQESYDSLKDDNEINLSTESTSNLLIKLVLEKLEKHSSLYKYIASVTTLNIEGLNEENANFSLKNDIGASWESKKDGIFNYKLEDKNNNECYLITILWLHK

[2] = target: the molecule itself; test: AUC
[3] = target: T2, GST-Aim21 (S. cerevisiae, UniProt P40563 1-679); test: pull-down
T2 sequence (looked up): T1 sequence (looked up) 1

binding result [1]: binds
B1: actin-capping protein carrying a 6His-tag in its Cap1 subunit (His-Cap1/Cap2 dimer) (complex, S. cerevisiae)
chain 1: MSSSKFEEVINKIINDSPPGELREVYDDLIKITSENSKNTILDAIENYNVQNCIPIEVNGNSVIISKYNKEGAKFFDPVNSVIFSVNHLERKGLDIEPYEFTHAKIEKGQLKELHDKLHEYLLQSFPGDVSFAVYPVPEEISKISIIIVSTKYNPNNFWNGHWRSSYIYDLETRELSGQISTQVHYYEDGNVSFQSGKDINQSNVDDVVCTIRDIETNFENDLDLSFFDLNEKQFKALRRRLPVTRSKINWGSAIGSYRLGKNAAEGK
chain 2: MSDAQFDAALDLLRRLNPTTLQENLNNLIELQPNLAQDLLSSVDVPLSTQKDSADSNREYLCCDYNRDIDSFRSPWSNTYYPELSPKDLQDSPFPSAPLRKLEILANDSFDVYRDLYYEGGISSVYLWDLNEEDFNGHDFAGVVLFKKNQSDHSNWDSIHVFEVTTSPSSPDSFNYRVTTTIILHLDKTKTDQNSHMMLSGNLTRQTEKDIAIDMSRPLDVIFTSHVANLGSLIEDIESQMRNLLETVYFEKTRDIFHQTKNAAIASSAEEANKDAQAEVIRGLQSL

binding result [3]: binds
B2: recombinant 6-histidine-tagged Tda2 (natural protein, S. cerevisiae, UniProt P40045 1-126, looked up)
chain: T1 sequence (looked up) 2
stoichiometry N [2]: 2
